One experiment deals with U2AF65 UHM, 369-475 (UniProt P26368). The experiment is described as follows: NMR 15N-HSQC titration. The note with it: reference: unphosphorylated Atx1 ULM peptide; sites S776.
Experiment [1] deals with T1, 14-3-3ζ (Homo sapiens, UniProt P63104).
T1 sequence (P63104 1-245): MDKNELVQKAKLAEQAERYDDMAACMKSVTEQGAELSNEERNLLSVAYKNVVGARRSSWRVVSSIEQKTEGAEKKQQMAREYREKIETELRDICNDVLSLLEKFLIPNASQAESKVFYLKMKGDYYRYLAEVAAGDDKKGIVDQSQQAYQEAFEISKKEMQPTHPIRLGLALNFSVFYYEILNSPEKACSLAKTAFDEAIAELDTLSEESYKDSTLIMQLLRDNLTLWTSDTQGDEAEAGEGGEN
The experiment is described as follows: ITC binding of Atx1 ULM peptides to 14-3-3ζ. The note with it: 50 mM sodium phosphate buffer (pH 7.0), 150 mM NaCl, 5 mM DTT, 295 K, average of three measurements, n.b. = binding not detectable. The text has this: Since S776 phosphorylated Atx1 binds also the 14-3-3 protein [17], we compared the affinity of this interaction. We used a peptide C-terminally extended as compared to the one previously designed to probe interaction with U2AF65 UHM so to include P778 and encompass the complete 14-3-3 ‘mode II’ recognition motif (Atx1_pS_ULM_PE, residues 769–779). We compared the affinities of this peptide with the non-phosphorylated version (Atx1_S_ULM_PE) and with the shorter Atx1_pS_ULM peptide. […] We chose to work with isoform ζ (14-3-3ζ) since it is present in high concentrations in the neuronal nucleus of all the major affected areas in SCA1 brains.
All the proteins were dialyzed against 50 mM sodium phosphate buffer (pH 7.0), 150 mM NaCl and 5 mM DTT. Solutions of 0.025–0.4 mM UHM proteins in the cell were titrated by injections of a total of 295 µl of 0.25–3.9 mM peptide in the syringe in 21 aliquots. The concentrations of the 14-3-3ζ and ATX1 ULM ligands were adjusted to 0.012–0.037 mM and 0.1–0.4 mM respectively. Data were processed with the software MicroCal Origin version 5.0 provided by the manufacturer. All dissociation constants were averages of three measurements.

The target in experiment [2] is T2, U2AF65 UHM (residues 369–475) (UniProt P26368 369-475).
T2 construct: U2AF65 (splicing factor U2AF 65 kDa subunit), UHM domain, residues 369-475; The His6-GST tags (vector pETM30) are TEV-cleavable; 15N-labelled for the NMR experiments, unlabelled for ITC; also called U2AF65 UHM domain; source: E. coli BL21 (DE3)pLysS, purified (Ni-NTA, SEC)
T2 sequence (P26368 369-475, one chain of several): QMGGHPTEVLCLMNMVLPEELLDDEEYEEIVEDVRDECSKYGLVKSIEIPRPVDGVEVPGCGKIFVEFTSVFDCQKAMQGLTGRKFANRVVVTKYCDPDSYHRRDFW
As to the kind of experiment: ITC; 50 mM sodium phosphate buffer (pH 7.0), 150 mM NaCl, 5 mM DTT; 295 K; protein in the cell, peptide in the syringe; single-site model; averages of three measurements. The note with it: both partners purified.

Experiment [3] addresses T3, 14-3-3ζ (UniProt P63104 1-245).
T3 construct: 14-3-3 protein, isoform zeta; also called 14-3-3 isoform ζ
T3 sequence (looked up): T1 sequence (P63104 1-245)
Described as above. The note with it: both partners purified.

For experiment [4], the target named is T2, U2AF65 UHM (residues 369–475). As to the kind of experiment: ITC; 20 mM sodium phosphate buffer (pH 6.4), 30 mM NaCl, 5 mM DTT; 295 K; protein in the cell, peptide in the syringe. The note with it: both partners purified.
In experiment [5] the target is T4, SPF45 UHM (residues 301–401) (UniProt Q96I25 301-401).
T4 construct: SPF45, also known as RBM17, UHM domain, residues 301-401; The His6-GST tags (vector pETM30) are TEV-cleavable; also called RBM17 UHM; source: E. coli BL21 (DE3)pLysS, purified (Ni-NTA, SEC)
T4 sequence (looked up): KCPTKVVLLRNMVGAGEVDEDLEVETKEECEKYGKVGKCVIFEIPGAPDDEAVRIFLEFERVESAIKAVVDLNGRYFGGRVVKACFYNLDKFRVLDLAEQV
The experiment is described as follows: ITC; 50 mM sodium phosphate buffer (pH 7.0), 150 mM NaCl, 5 mM DTT; 295 K; protein in the cell, peptide in the syringe; single-site model; averages of three measurements. The note with it: both partners purified.

The values that follow come from article PMC2791216, “Phosphorylation of S776 and 14-3-3 Binding Modulate Ataxin-1 Interaction with Splicing Factors” (PLoS ONE, 2009).

Square brackets hold non-standard residues; d marks the D form. Ends that are not written are not given here. Peptide text beside a SMILES is read from it. pS = N[C@@H](COP(=O)(O)O)C(=O)O

Chain of U2AF65 UHM, 369-475 (P26368 whole entry, looked up, tested part not stated, one chain of several): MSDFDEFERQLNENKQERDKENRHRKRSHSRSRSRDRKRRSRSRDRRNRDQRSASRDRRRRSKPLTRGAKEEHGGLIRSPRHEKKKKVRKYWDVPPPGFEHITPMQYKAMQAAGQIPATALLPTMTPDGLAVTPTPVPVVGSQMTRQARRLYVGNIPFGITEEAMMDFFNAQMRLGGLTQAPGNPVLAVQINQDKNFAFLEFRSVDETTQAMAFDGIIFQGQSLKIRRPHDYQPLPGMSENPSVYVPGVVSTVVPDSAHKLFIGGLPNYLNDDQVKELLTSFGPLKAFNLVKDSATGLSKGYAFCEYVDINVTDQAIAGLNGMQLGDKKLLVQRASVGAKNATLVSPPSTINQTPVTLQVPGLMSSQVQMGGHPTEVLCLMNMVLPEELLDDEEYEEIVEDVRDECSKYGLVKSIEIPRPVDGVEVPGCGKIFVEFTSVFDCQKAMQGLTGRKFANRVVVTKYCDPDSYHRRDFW

For “Ataxin-1 (Atx1) 769-777 (from UniProt P54253) pS776 Atx1 ULM peptide”, the “binding against the reference” value with U2AF65 UHM, 369-475 is reported as “same”.
For the molecule `C[C@H](N)C(=O)N[C@H](C(=O)N[C@@H](CCCNC(=N)N)C(=O)N[C@@H](CCCCN)C(=O)N[C@@H](CCCNC(=N)N)C(=O)N[C@@H](CCCNC(=N)N)C(=O)N[C@@H](Cc1c[nH]c2ccccc12)C(=O)N[C@@H](COP(=O)(O)O)C(=O)N[C@@H](C)C(=O)N1CCC[C@H]1C(=O)N[C@@H](CCC(=O)O)C(=O)O)[C@@H](C)O` [Atx1_pS_ULM_PE] (H-ATRKRRW[pS]APE-OH), the Kd at 14-3-3ζ [1] was 0.4 ± 0.03 µM.
For the molecule ATRKRRWAAPE [Atx1_A_ULM_PE], the “Kd, 14-3-3ζ (ITC)” value on 14-3-3ζ [1] is recorded as “n.b”.
Still for that read-out and setting: the result for ATRKRRWSAPE [Atx1_S_ULM_PE] reads “n.b. ^c”; that for ATRKRRWDAPE [Atx1_D_ULM_PE], “n.b”.

B1: Atx1_pS_ULM (peptide)
peptide: ATRKRRW[pS]A
notes: Ataxin-1 (Atx1), residues 769-777, S776 phosphorylated; also called phosphorylated Atx1 ULM; source: synthetic peptide; bought: Pepceuticals Limited
Consider B1, for which the Kd in experiment [2] amounted to 18.4 ± 0.7 µM; with 14-3-3ζ [3] it was 1 ± 0.1 µM; in experiment [4], 0.6 ± 0.08 µM.

B2: Atx1_S_ULM_PE (peptide)
peptide: ATRKRRWSAPE
notes: Ataxin-1 (Atx1), residues 769-779; source: synthetic peptide; bought: Pepceuticals Limited
Take B2: the Kd in experiment [5] came out at 23.4 ± 1.5 µM; in experiment [2], 9.2 ± 0.3 µM.

B3: Atx1_A_ULM_PE (peptide)
peptide: ATRKRRWAAPE
notes: also called S776A-mutated peptide; S776A mutant peptide; source: synthetic peptide; bought: Pepceuticals Limited
With B3, the Kd is 22.5 ± 0.6 µM in experiment [5] and 8.9 ± 0.4 µM in experiment [2].

B4: Atx1_D_ULM_PE (peptide)
peptide: ATRKRRWDAPE
notes: also called S776D peptide; S776D mutant peptide; source: synthetic peptide; bought: Pepceuticals Limited
Turning to B4, the results for the Kd in experiment [5] and in experiment [2] were 0.9 ± 0.07 µM and 6.4 ± 0.7 µM, respectively.

B5: Atx1_pS_ULM_PE (peptide)
peptide: ATRKRRW[pS]APE
notes: Ataxin-1 (Atx1), residues 769-779, S776 phosphorylated; source: synthetic peptide; bought: Pepceuticals Limited
For B5, the Kd was found to be 40 ± 1.6 µM in experiment [5] and 35.8 ± 1.3 µM in experiment [2].
